Laboratory results published in the supplement of paper PMC10567573.

B1: TRIM43 (parent)
chain: RAQMIRNEYRKLHPVLHKEEKQHL
B2: TRIM39 (parent)
chain: CKACITRWWEDLERDFPCPVCRKT

Variants of: B1
Assay: protein stability index of a GFP-peptide fusion (GPS, HEK-293T) (PSI 1-6); higher = more stable
Settings: c terminus: a fixed tail appended
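Also: lentivirally expressed fusions sorted by FACS into six bins by GFP to DsRed ratio, PSI derived from sequencing read proportions per bin multiplied by bin number.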

Protein stability index: each site, then its substitutions
V15: P 3.32
H17: K 4.15; P 3.42; D 3.5; Q 3.07
H13: K 3.55; L 3.28; C 3
Y9: P 3.93; F 3.35; W 2.44
I5: V 3.15; D 4.2
Q3: M 2.82; C 2.68
R1: E 3.29; I 2.01
E19: G 2.96; V 2.25; P 4.02; W 2.18
R10: E 4.09; H 3.39; K 2.91; M 2.91
A2: K 3.2; G 3.61; E 4.26; R 3.76; N 3.18
K21: A 2.91; P 2.97
Q22: H 2.91; T 2.58
M4: C 3.23; K 3.2; R 3.11
H23: K 3.33
L12: Y 3.75; S 4.43; G 4.18
L24: D 4.51
E8: Q 2.75; K 2.92
K18: Q 3.49; T 3.06; A 2.81
R6: T 3.89

Variants of: B2
Assay: as above
Settings: c terminus: a fixed tail appended

Protein stability index, by site and new letter:
A3: D 4.04; W 2.87; G 4.09; H 3.67; M 3.35; E 4.12; N 4.16; P 2.48; Y 3.9; L 3.8; C 3.57; V 4.17; T 4.85; S 4.21; Q 4.06; K 3.06; R 3.53; I 3.9; F 3.17
W8: D 4.42; C 4.15; Y 4.22; A 4.07; I 4.26; H 4.66; V 4.73; P 5.08; L 4.19; N 5.12; Q 4.83; F 4.17; T 4.09; R 4.62; K 4.6; G 4.8; E 4.73; M 4.62; S 4.92
K2: W 3.23; C 3.64; P 4.11; Y 4.23; L 3.58; A 4.08; I 3.25; T 4.05; M 3.69; H 4.08; G 3.59; D 4.5; F 3.34; V 3.53; E 4.48; R 4.02; S 4.59; Q 4.08; N 4.4
T6: I 3.01; F 2.95; A 3.64; E 4.03; L 3.58; M 3.27; P 3.5; Y 3.33; K 3.57; C 2.57; N 4.38; Q 3.77; W 3.36; S 3.62; G 4.36; V 2.71; R 3.42; D 4.27; H 3.28
F16: A 4.32
R14: K 4.03; D 3.99; G 4.59; T 4.63; E 4.59; N 3.83; W 3.52; Q 3.78; M 4.27; A 4.19; F 3.69; I 3.26; S 4.4; C 4.09; H 4.23; L 3.4; P 3.79; V 3.76; Y 3.48
I5: Q 4.31; L 4.25; G 3.86; N 4.12; T 3.99; M 4.22; K 3.88; E 4.6; A 4.25; C 4.63; R 3.93; D 4.36; S 4.22; F 4.22; Y 4.39; H 4.49; W 3.99; V 3.35; P 3.86
E10: R 3.06; K 3.5; Q 3.56; H 3.77; S 3.78; W 2.92; F 3.51; Y 3.24; L 3.13; V 3.16; A 4.08; T 4.08; D 4.11; P 3.72; C 3.64; G 3.94; M 3.64; N 4.11; I 3.65
D11: L 3.57; R 3.4; Q 3.48; G 2.85; T 3.58; H 3.52; I 2.53; V 3.79; M 3.9; S 4.28; P 3.93; C 3.38; K 3.5; F 3.5; N 4.06; Y 3.31; W 3.37; E 3.68; A 3.71
D15: Y 2.84; K 2.98; Q 3.36; A 3.32; W 2.72; M 2.37; H 2.72; I 2.43; S 3.79; L 2.26; N 3.73; P 3.87; C 2.09; V 3; T 3.06; E 3.54; F 3.24; G 3.31; R 2.46
L12: W 3.87; V 3.63; A 4; H 2.89; Q 3.65; N 4.24; D 4.05; K 4.19; F 3.88; I 3.71; S 4.44; P 4.06; Y 3.43; E 3.29; C 3.88; T 4.45; R 3.86; G 4.11; M 4.14
R7: T 4.07; K 3.73; W 3.97; E 3.73; A 4.08; V 3.28; H 5.06; C 3.8; S 3.98; Y 4.85; M 3.72; Q 3.93; D 4; L 3.58; P 3.93; F 3.79; I 2.96; N 3.89; G 4.08
C4: S 2.07; T 2.24; I 1.59; G 1.65; P 2.1; M 1.9; F 2.45; W 1.75; N 2.35; D 1.75; V 2.19; R 2.18; E 1.88; K 2.05; Q 2.41; Y 1.61; A 1.72; H 3.14; L 1.63
C1: Y 1.72; H 2.16; W 2.56; I 1.27; D 2.45; A 1.94; Q 2.3; T 2.06; S 1.68; V 2.27; M 2.26; L 2.31; N 1.67; R 2.43; F 1.42; P 2.42; K 1.76; G 1.74; E 2.07
E13: T 3.13; W 2.92; G 3.79; V 2.98; A 3.36; Y 3.79; F 3.37; C 2.82; Q 3.94; N 3.61; L 3.15; P 3.61; M 2.95; R 3.46; K 2.98; H 3.23; S 3.63; I 3.08; D 3.7
W9: N 4.52; G 4.55; H 5.16; P 4.3; I 3.65; A 4.23; D 4.55; Q 4.69; V 4.31; S 4.56; C 4.53; T 4.25; F 4.07; L 3.87; M 4.11; E 4.24; K 4.86; Y 3.75; R 4.47
